# IntAct's records for PubMed 16287128
# B1: Matrilin-3 (Homo sapiens), O15232 (parent)
# chain: MPRPAPARRLPGLLLLLWPLLLLPSAAPDPVARPGFRRLETRGPGGSPGRRPSPAAPDGAPASGTSEPGRARGAGVCKSRPLDLVFIIDSSRSVRPLEFTKVKTFVSRIIDTLDIGPADTRVAVVNYASTVKIEFQLQAYTDKQSLKQAVGRITPLSTGTMSGLAIQTAMDEAFTVEAGAREPSSNIPKVAIIVTDGRPQDQVNEVAARAQASGIELYAVGVDRADMASLKMMASEPLEEHVFYVETYGVIEKLSSRFQETFCALDPCVLGTHQCQHVCISDGEGKHHCECSQGYTLNADKKTCSALDRCALNTHGCEHICVNDRSGSYHCECYEGYTLNEDRKTCSAQDKCALGTHGCQHICVNDRTGSHHCECYEGYTLNADKKTCSVRDKCALGSHGCQHICVSDGAASYHCDCYPGYTLNEDKKTCSATEEARRLVSTEDACGCEATLAFQDKVSSYLQRLNTKLDDILEKLKINEYGQIHR
# partner: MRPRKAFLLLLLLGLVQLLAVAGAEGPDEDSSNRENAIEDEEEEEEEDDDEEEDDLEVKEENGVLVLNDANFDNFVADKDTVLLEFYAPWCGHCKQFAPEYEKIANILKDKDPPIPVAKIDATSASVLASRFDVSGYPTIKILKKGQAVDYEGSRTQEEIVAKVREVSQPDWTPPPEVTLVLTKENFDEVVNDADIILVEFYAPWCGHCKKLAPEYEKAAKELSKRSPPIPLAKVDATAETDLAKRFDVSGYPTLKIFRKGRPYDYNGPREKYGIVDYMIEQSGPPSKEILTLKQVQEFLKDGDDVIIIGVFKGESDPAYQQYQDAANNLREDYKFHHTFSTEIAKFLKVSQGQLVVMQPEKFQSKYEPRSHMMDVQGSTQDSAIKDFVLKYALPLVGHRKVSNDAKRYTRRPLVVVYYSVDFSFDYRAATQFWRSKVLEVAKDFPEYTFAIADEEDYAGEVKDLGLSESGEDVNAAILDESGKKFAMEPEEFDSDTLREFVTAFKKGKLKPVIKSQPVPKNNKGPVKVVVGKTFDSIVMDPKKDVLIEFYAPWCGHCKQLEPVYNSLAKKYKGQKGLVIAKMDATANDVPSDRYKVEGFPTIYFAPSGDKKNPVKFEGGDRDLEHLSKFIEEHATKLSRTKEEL
# Variants of: B1
# Details: with pdia4_human PDIA4, P13667
row,Variant,effect of a mutation on the interaction
1,V194D,causing an interaction
2,R121W,causing an interaction

# The remaining lines, values ahead:
row,effect of a mutation on the interaction,Variant
1,causing an interaction,A219D
2,with no effect,E252K
